Measurements reported in patent US20260274910A1, “SINGLE FUSION PROTEIN AND PHARMACEUTICAL COMPOSITION” (MEDI&GENE INC., priority 2023, published 2026).

Target: ATP5B protein
Experiment: SPR, ATP5B amine-coupled to CM5 chip, peptide in flow at 50 ul/min; binding units relative to SEQ ID NO: 12

Sequence of ATP5B protein (P06576 48-529): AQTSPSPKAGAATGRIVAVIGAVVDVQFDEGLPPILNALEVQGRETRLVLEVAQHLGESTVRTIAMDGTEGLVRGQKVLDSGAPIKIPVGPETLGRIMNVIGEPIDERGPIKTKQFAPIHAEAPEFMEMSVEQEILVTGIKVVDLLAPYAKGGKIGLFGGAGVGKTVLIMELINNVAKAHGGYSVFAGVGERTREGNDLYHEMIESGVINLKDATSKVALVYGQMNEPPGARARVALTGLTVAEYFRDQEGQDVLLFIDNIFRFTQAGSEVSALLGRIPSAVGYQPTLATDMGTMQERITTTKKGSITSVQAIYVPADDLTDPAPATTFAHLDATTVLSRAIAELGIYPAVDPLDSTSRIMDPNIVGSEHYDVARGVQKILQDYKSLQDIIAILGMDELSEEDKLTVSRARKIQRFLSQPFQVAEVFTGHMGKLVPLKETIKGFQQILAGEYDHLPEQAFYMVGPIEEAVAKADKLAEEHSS

| Binder | Binding (%) |
| --- | --- |
| VDRAAGSIREAGGAFGKREQAEEERYFR [Shortened substance (8-35) amino acid Ala substituted (11)] | 100 |
| VDRGAGSIREAGGAFGKREQAEEERYFA [Shortened substance (8-35) amino acid Ala substituted (35)] | 110 |
| VDRGAGSIREAGGAAGKREQAEEERYFR [Shortened substance (8-35) amino acid Ala substituted (22)] | 94 |
| VDRGAGSIREAGGAFGKREQAEEEAYFR [Shortened substance (8-35) amino acid Ala substituted (32)] | 426 |
| VDRGAGSIREAAGAFGKREQAEEERYFR [Shortened substance (8-35) amino acid Ala substituted (19)] | 89.6 |
| ADRGAGSIREAGGAFGKREQAEEERYFR [Shortened substance (8-35) amino acid Ala substituted (8)] | 101 |
| VDRGAGSIREAGGAFGKREQAEEERYAR [Shortened substance (8-35) amino acid Ala substituted (34)] | 92.1 |
| VDRGAGSIAEAGGAFGKREQAEEERYFR [Shortened substance (8-35) amino acid Ala substituted (16)] | 97 |
| VDRGAGSIREAGGAFGKREQAAEERYFR [Shortened substance (8-35) amino acid Ala substituted (29)] | 96.7 |
| VDRGAGSIREAGGAFGKRAQAEEERYFR [Shortened substance (8-35) amino acid Ala substituted (26)] | 94.1 |
| VDRGAGSIREAGGAFGAREQAEEERYFR [Shortened substance (8-35) amino acid Ala substituted (24)] | 100 |
| VDRGAGSIREAGGAFGKREAAEEERYFR [Shortened substance (8-35) amino acid Ala substituted (27)] | 89.5 |
| VDRGAGSIREAGGAFAKREQAEEERYFR [Shortened substance (8-35) amino acid Ala substituted (23)] | 102 |
| VDRGAASIREAGGAFGKREQAEEERYFR [Shortened substance (8-35) amino acid Ala substituted (13)] | 98.5 |
| VDAGAGSIREAGGAFGKREQAEEERYFR [Shortened substance (8-35) amino acid Ala substituted (10)] | 104 |

Continued, values first:

| Binding (%) | Binder |
| --- | --- |
| 158 | VDRGAGSIREAGGAFGKREQAEEARYFR [Shortened substance (8-35) amino acid Ala substituted (31)] |
| 100 | VDRGAGSIREAGGAFGKREQAEEERYFR [Shortened substance (8-35)] |
| 99.3 | VDRGAGSAREAGGAFGKREQAEEERYFR [Shortened substance (8-35) amino acid Ala substituted (15)] |
| 98.8 | VDRGAGAIREAGGAFGKREQAEEERYFR [Shortened substance (8-35) amino acid Ala substituted (14)] |
| 169 | VDRGAGSIRAAGGAFGKREQAEEERYFR [Shortened substance (8-35) amino acid Ala substituted (17)] |
| 146 | VDRGAGSIREAGGAFGKREQAEEERAFR [Shortened substance (8-35) amino acid Ala substituted (33)] |
| 91.6 | VARGAGSIREAGGAFGKREQAEEERYFR [Shortened substance (8-35) amino acid Ala substituted (9)] |
| 94 | VDRGAGSIREAGGAFGKREQAEAERYFR [Shortened substance (8-35) amino acid Ala substituted (30)] |
| 68 | VDRGAGSIREAGAAFGKREQAEEERYFR [Shortened substance (8-35) amino acid Ala substituted (20)] |
| 85.2 | VDRGAGSIREAGGAFGKAEQAEEERYFR [Shortened substance (8-35) amino acid Ala substituted (25)] |
